Test results as given in US20120022128.

Assays:
recombinant PKIB = system: T1, recombinant PKIB
T1 sequence: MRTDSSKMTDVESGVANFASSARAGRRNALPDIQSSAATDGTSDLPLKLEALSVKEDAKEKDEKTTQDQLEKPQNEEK

recombinant PKA-C kinase
phosphorylation of Akt-Ser473, in vitro kinase assay with recombinant proteins (western blot with anti-phospho-Akt (Ser473) antibody) (recombinant Akt): phosphorylated Ser473-specific antibody detected phosphorylated Akt when PKA-C kinase reacted with recombinant Akt
phosphorylation of Akt-Ser473 by PKA-C, in vitro kinase assay with recombinant proteins (recombinant PKIB): the phosphorylation level of Akt (Ser473) was clearly enhanced by addition of PKIB
